Assay [1] addresses T1, His-tagged (6x) Drosophila histone H1 fusion protein (Drosophila, UniProt P02255 1-256).
T1 sequence (looked up): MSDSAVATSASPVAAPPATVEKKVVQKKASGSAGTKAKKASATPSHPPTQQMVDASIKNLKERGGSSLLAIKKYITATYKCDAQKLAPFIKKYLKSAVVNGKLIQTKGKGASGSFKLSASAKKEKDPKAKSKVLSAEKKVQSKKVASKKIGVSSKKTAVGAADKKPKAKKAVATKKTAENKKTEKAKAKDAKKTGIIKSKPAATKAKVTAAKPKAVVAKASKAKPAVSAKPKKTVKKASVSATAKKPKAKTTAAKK
In words: pull-down.

Assay [2] addresses T2, full-length Drosophila histone H1 fusion protein with a maltose binding protein-tag (Drosophila, UniProt P02255 1-256).
T2 sequence (looked up): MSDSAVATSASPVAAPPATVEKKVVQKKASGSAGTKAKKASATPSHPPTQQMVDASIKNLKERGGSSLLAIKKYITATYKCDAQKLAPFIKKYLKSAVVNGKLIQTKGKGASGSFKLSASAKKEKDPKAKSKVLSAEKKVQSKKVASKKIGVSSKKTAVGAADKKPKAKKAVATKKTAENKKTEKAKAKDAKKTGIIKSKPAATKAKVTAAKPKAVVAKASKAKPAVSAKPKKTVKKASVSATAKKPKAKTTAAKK
In words: far-Western, overlay or dot blot.

B1: GST-tagged Chromator chromodomain (219-277) (domain or fragment, Drosophila, UniProt Q86BS3 219-277, looked up)
chain: TEEPVEKIVAKRFNPRRKTHEYLVKWVDRSHHENTWEVMANLERVPYFLQMFEKQLARQ
In the case of B1, the binding result in assay [1] and in assay [2] was “binds” in each case.

These data come from publication PMC3310976 (Chromosoma, 2011).
